From patent US7547509B2, “Cyanovirin variant-polymer conjugates” (priority 2002, dated 2009) come the findings set out here.

The test system of one series is influenza A/Udorn (H3N2). Description: Influenza virus inactivation assay (protection of MDCK cells). In kind it is cell-based. Particulars: read on day 5, read-out: ED50 (dose required to protect 50% of MDCK cells from influenza infection).
For another series, the system named is HIV. Put plainly: Anti-HIV bioassay conducted at the National Cancer Institute. In kind it is cell-based. The conditions noted are these: against HIV, methods of U.S. Pat. No. 5,843,883. As to the method: Bioassays were conducted at the National Cancer Institute using the methods described in U.S. Pat. No. 5,843,883 (column 20, lines 20-55), which patent is incorporated herein by reference.

Series [1] is described as follows: Acute toxicity dose escalation study in mice. In kind it is in vivo, Hsd:ICR(CD-1) mice. The conditions noted are these: intravenously on three consecutive days, high doses / equivalent dose. As to the method:
To compare the acute toxicity of native CV-N and the PEG30 kD-MAL-CV-N(Q62C) conjugate, an in vivo dose escalation study was performed in which Hsd:ICR(CD-1) mice were administered modified or unmodified CN-N intravenously on three consecutive days.

B1: Cyanovirin-N (protein, listed as Nostoc ellipsosporum)
chain: LGKFSQTCYNSAIQGSVLTSTCERTNGGYNTSSIDLNSVIENVDGSLKWQPSNFIETCRNTQLAGSSELAAECKTRAQQFVSTKINLDDHIANIDGTLKYE
Turning to B1, the EC50 in the series with influenza A/Udorn (H3N2) turned out to be 2.56 nM. This molecule registered an ED50 in the series with HIV of 1 ng/mL. Also, the “acute toxicity (observation)” value in series [1] was “death of all of the mice”.
